Residue numbers refer to the chain shown, from its start.
Tests used:
[1] = test system: T1, PEDF purified from human plasma
T1 sequence: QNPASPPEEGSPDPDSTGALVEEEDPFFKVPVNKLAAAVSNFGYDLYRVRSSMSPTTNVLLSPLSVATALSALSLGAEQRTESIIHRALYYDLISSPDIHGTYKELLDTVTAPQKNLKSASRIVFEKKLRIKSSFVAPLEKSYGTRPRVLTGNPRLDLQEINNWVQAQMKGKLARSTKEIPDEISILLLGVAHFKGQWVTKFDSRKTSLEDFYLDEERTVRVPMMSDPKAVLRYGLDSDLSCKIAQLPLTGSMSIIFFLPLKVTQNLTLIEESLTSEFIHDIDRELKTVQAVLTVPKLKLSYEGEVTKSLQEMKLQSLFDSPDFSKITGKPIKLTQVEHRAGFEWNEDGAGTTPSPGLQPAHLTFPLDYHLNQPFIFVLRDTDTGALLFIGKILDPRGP

[2] = test system: T2, rPEDF double variant S24,114A
T2 sequence: T1 sequence with S5A, S95A

[3] = test system: T3, rPEDF double variant S24,114E
T3 sequence: T1 sequence with S5E, S95E

rPEDF variant S114A = test system: T4, rPEDF variant S114A
T4 sequence: T1 sequence with S95A

rPEDF variant S114E = test system: T5, rPEDF variant S114E
T5 sequence: T1 sequence with S95E

rPEDF variant S24A = test system: T6, rPEDF variant S24A
T6 sequence: T1 sequence with S5A

rPEDF variant S24E = test system: T7, rPEDF variant S24E
T7 sequence: T1 sequence with S5E

[4] = test system: T8, recombinant PEDF (recombinant wild-type human pigment epithelium derived factor)
T8 sequence: T1 sequence

rPEDF variant S227A = test system: T9, rPEDF variant S227A
T9 sequence: T1 sequence with S208A

rPEDF variant S227E = test system: T10, rPEDF variant S227E
T10 sequence: T1 sequence with S208E

Row | Substance | in vitro CK2 phosphorylation ([γ32P]-ATP, autoradiography) [1] | in vitro CK2 phosphorylation (autoradiography) [2] | in vitro CK2 phosphorylation (autoradiography) [3] | in vitro CK2 phosphorylation (autoradiography) (rPEDF variant S114A) | in vitro CK2 phosphorylation (autoradiography) (rPEDF variant S114E) | in vitro CK2 phosphorylation (autoradiography) (rPEDF variant S24A) | in vitro CK2 phosphorylation (autoradiography) (rPEDF variant S24E) | in vitro CK2 phosphorylation ([γ32P]-ATP, autoradiography) [4] | in vitro PKA phosphorylation ([γ32P]-ATP, heparin, autoradiography) [1] | in vitro PKA phosphorylation (autoradiography) (rPEDF variant S227A) | in vitro PKA phosphorylation (autoradiography) (rPEDF variant S227E) | in vitro PKA phosphorylation ([γ32P]-ATP, heparin, autoradiography) [4]
1 | recombinant human CK2 (casein kinase 2) | Both rPEDF and plPEDF were phosphorylated by CK2; CK2 phosphorylation of rPEDF was stronger than the phosphorylation of plPEDF | the double variant S24,114A almost completely abolished this phosphorylation | both S114E and S24,114E mutations significantly increased CK2 phosphorylation compared with CK2 phosphorylation of rPEDF | The S114A variant significantly reduced CK2 phosphorylation | both S114E and S24,114E mutations significantly increased CK2 phosphorylation compared with CK2 phosphorylation of rPEDF | Mutation of S24A significantly reduced CK2 phosphorylation | the S24E mutation reduced phosphorylation only to a moderate extent | Both rPEDF and plPEDF were phosphorylated by CK2; CK2 phosphorylation of rPEDF was stronger than the phosphorylation of plPEDF | – | – | – | –
2 | catalytic subunit of PKA | – | – | – | – | – | – | – | – | Both rPEDF and plPEDF were equally phosphorylated by PKA in the presence of heparin | Mutation of Ser227 to Ala or to Glu completely abolished PKA phosphorylation | Mutation of Ser227 to Ala or to Glu completely abolished PKA phosphorylation | Both rPEDF and plPEDF were equally phosphorylated by PKA in the presence of heparin

Source: patent US20090269320
